Assay results as given in paper PMC10853800.

T1: EYA4 358-639 (UniProt O95677 358-639)
T1 sequence: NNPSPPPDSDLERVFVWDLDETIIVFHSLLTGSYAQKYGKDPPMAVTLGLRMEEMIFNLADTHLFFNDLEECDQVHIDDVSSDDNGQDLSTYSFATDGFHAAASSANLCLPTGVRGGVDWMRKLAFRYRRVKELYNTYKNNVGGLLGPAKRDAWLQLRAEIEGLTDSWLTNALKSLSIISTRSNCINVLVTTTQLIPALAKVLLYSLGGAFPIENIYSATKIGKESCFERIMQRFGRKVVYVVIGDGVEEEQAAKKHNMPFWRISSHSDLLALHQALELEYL

T2: EYA4 1-365 (UniProt O95677 1-365)
T2 sequence: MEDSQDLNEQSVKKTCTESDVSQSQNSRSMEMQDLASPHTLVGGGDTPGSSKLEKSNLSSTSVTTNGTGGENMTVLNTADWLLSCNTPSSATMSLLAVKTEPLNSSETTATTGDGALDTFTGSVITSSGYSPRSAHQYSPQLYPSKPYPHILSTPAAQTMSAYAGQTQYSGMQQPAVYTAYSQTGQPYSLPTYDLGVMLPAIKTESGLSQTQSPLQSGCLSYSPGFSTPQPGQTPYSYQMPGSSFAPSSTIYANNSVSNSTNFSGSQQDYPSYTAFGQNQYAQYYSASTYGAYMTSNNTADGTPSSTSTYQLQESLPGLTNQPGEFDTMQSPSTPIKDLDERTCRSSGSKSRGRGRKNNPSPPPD


Key:
RAD51 T309A = RAD51 T309A (UniProt Q06609 1-339, T309A); assay: negative-stain EM
Chain of RAD51 T309A (Q06609 whole entry T309A): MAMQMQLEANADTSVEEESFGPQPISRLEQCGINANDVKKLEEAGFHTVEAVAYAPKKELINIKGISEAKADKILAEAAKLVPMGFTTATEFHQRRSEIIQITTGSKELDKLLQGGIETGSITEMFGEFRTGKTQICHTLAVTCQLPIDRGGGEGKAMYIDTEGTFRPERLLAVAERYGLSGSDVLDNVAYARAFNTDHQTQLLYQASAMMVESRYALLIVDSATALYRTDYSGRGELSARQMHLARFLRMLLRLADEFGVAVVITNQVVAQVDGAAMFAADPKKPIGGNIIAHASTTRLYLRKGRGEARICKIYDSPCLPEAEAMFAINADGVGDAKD

RAD51 Y54F/Y315F [1] = target: T3, RAD51 Y54F/Y315F (UniProt Q06609 1-339, Y54F;Y315F); assay: negative-stain EM
T3 sequence (Q06609 whole entry Y54F/Y315F): as the sequence (Q06609 whole entry T309A) above, with Y54F, A309T, Y315F counted along it

RAD51 WT = RAD51 WT (UniProt Q06609 1-339); assay: negative-stain EM
Chain of RAD51 WT (Q06609 whole entry): as the sequence (Q06609 whole entry T309A) above, with A309T counted along it

RAD51 Y54F/Y315F [2] = target: T3, RAD51 Y54F/Y315F; assay: MST
EYA4 358-639 = target: T1, EYA4 358-639; assay: EMSA
EYA4 1-365 = target: T2, EYA4 1-365; assay: MST
RAD51 Y54F/Y315F [3] = target: T3, RAD51 Y54F/Y315F; assay: MST; remark: listed apart in the source

Row | Binder | binding result (RAD51 T309A) | binding result (RAD51 Y54F/Y315F [1]) | binding result (RAD51 WT) | binding result (RAD51 Y54F/Y315F [2]) | binding result (EYA4 358-639) | Kd (EYA4 1-365) | binding result (RAD51 Y54F/Y315F [3])
1 | 83(dT) (ssDNA) DNA: TTTTTTTTTTTTTTTTTTTTTTTTTTTTTTTTTTTTTTTTTTTTTTTTTTTTTTTTTTTTTTTTTTTTTTTTTTTTTTTTTTT | binds | binds | binds | – | – | – | –
2 | Cy5-P1 ssDNA (ssDNA) DNA: TTATATCCTTTACTTTGAATTCTATGTTTAACCTTTTACTTATTTTGTATTAGCCGGATCCTTATTTCAATTATGTTCAT | – | – | – | binds | no binding | 0.303 µM | –
3 | Cy5-P1/P2 dsDNA (dsDNA) DNA 1: TTATATCCTTTACTTTGAATTCTATGTTTAACCTTTTACTTATTTTGTATTAGCCGGATCCTTATTTCAATTATGTTCAT DNA 2: ATGAACATAATTGAAATAAGGATCCGGCTAATACAAAATAAGTAAAAGGTTAAACATAGAATTCAAAGTAAAGGATATAA | – | – | – | – | no binding | 0.732 µM | binds
